Measured values as given in IntAct's records for PubMed 26823173.

B1: Coronin-1A (Mus musculus), O89053 (parent)
chain: MSRQVVRSSKFRHVFGQPAKADQCYEDVRVSQTTWDSGFCAVNPKFMALICEASGGGAFLVLPLGKTGRVDKNVPLVCGHTAPVLDIAWCPHNDNVIASGSEDCTVMVWEIPDGGLVLPLREPVITLEGHTKRVGIVAWHPTAQNVLLSAGCDNVILVWDVGTGAAVLTLGPDVHPDTIYSVDWSRDGALICTSCRDKRVRVIEPRKGTVVAEKDRPHEGTRPVHAVFVSEGKILTTGFSRMSERQVALWDTKHLEEPLSLQELDTSSGVLLPFFDPDTNIVYLCGKGDSSIRYFEITSEAPFLHYLSMFSSKESQRGMGYMPKRGLEVNKCEIARFYKLHERKCEPIAMTVPRKSDLFQEDLYPPTAGPDPALTAEEWLGGRDAGPLLISLKDGYVPPKSRELRVNRGLDSARRRATPEPSGTPSSDTVSRLEEDVRNLNAIVQKLQERLDRLEETVQAK

Variants of: B1
Conditions: with gnas2_human GNAS

Row | Variant | effect of a mutation on the interaction
1 | T418A;T424A | disrupting interaction
2 | T418A | decreasing interaction
3 | T424A | decreasing interaction

Variants of: B1
Conditions: with gnas2_human GNAS
Remark: another data set of the same source

Row | Variant | effect of a mutation on the interaction
4 | T418E;T424E | disrupting interaction
